Measurements published in PMC4990970.

Tests used:
[1] = target: AtBAG5/Hsc70 complex (AtBAG5-long/Hsp70) (Arabidopsis thaliana | human) (UniProt O65373); assay: ITC; iTC200, room temperature, 20 mM Tris-HCl pH 7.5, 500 mM NaCl, 5 mM EGTA (apo-CaM, absence of calcium); 0.05-0.1 mM in the cell, 0.5-1.0 mM in the syringe
[2] = target: AtBAG5/Hsc70 complex (AtBAG5-long/Hsp70) (Arabidopsis thaliana | human) (UniProt O65373); assay: ITC; iTC200, room temperature, 20 mM Tris-HCl pH 7.5, 500 mM NaCl, 10 mM CaCl2 (holo-CaM, presence of calcium); 0.05-0.1 mM in the cell, 0.5-1.0 mM in the syringe

Kd [1]: 0.39 µM
Kd [2]: 21.2 µM
Substance: Calmodulin (CaM) (from UniProt P0DP23 1-149) (natural protein)
